Measured values: article PMC9654539, “Alkaline Stress Causes Changes in Polyamine Biosynthesis in Thermus thermophilus” (International Journal of Molecular Sciences, 2022)

Substrate: N=C(N)NCCCCN
Assay: purified protein
Format: biochemical, Thermus thermophilus
Settings: pH 10.0, 75 °C, 50 mM Tris-HCl, 10 μM MnCl2, 0.005–1 mM agmatine

B1: TtSpeB (aminopropylagmatine ureohydrolase) (Thermus thermophilus HB8) (protein)
chain: MRLVFGEKDTPYEEARVVVLPVPYDLSLSFLPGARRGPEAILLASRELEPFLLELGAAPEEVGIHAAEPVPWVAGMAEESHRLIREEALRHLRAGKWVVALGGDHSVTHPLVQAHREALGDFSLLHVDAHADLYPEWQGSVYSHASPFYRLLTEGFPLVQVGIRAMDRDSLRLARKKGVALFPAHRIHREGLPLDEILRALGKRVYISLDFDALDPSLMPSVGTPLPGGLSYRQVVDLLEAVFREKEVVGMDFVELSPNGQFHAEMTAAQLVYHAIGLKGLQAGWLSREVDHI
notes: gene amplified from HB8 genomic DNA, pET21b (pET21speBHis, NdeI/HindIII), His-tagged, tag not reported cut, E. coli BL21(DE3), heat step 70 °C, Ni-NTA
Km: 171 µM
